The record followed here is the RNAGym collection of RNA variant scans (doi:10.7554/elife.80360).

The chains are these.
B1: HDV Ribozyme (parent)
chain: GGCCGGCAUGGUCCCAGCCUCCUCGCUGGCGCCGGCUGGGCAACAUUCCGAGGGGACCGUCCCCUCGGUAAUGGCGAAUGGGACCCA

Variants of B1 are the subject of this series. Put plainly: self-cleavage, relative activity (ratio to wild type); higher = more cleavage; co-transcriptional.
As to U20A C24U, the self-cleavage is 0.162.

Turning to G35U G53C, the self-cleavage came to 0.478.

As to G81U, the self-cleavage was 0.365.

For G10C C24U, the self-cleavage worked out at 0.646.

In the case of G25C G68A, the self-cleavage came out at 0.227.

In the case of G40A U46G, the self-cleavage came out at 0.554.

As for G2C G82A, the self-cleavage amounted to 0.0462.

In the case of G53C U69C, the self-cleavage turned out to be 1.01.

As for C48U C63U, the self-cleavage turned out to be 0.969.

Regarding C32U A71G, the self-cleavage came to 0.903.

With G6C A42C, the self-cleavage was 0.138.

In the case of A45C A77U, the self-cleavage turned out to be 0.142.

Regarding A45C A77G, the self-cleavage is 0.534.

On to U12G A43U, for which the self-cleavage stood at 0.0639.

For G31C A43G, the self-cleavage came out at 0.104.

U37C U60G: the self-cleavage came to 0.906.

For the variant U47A G81A, the self-cleavage is 0.341.

As to G39C G76A, the self-cleavage was determined as 0.289.

In the case of U23G C66G, the self-cleavage came to 0.32.

Take G17A C75A: the self-cleavage stood at 0.128.

For the variant A16C U72C, the self-cleavage was 0.227.

G80C C84G: the self-cleavage worked out at 0.163.

As to A16U G25C, the self-cleavage came to 0.32.

On to U23C U27C, for which the self-cleavage worked out at 0.65.

With G5U G28U, the self-cleavage is 0.115.

Take C26U U72G: the self-cleavage was found to be 0.721.

For the variant G68U A87C, the self-cleavage worked out at 1.01.

For A51G C58G, the self-cleavage was determined as 0.969.

On to C4A G11U, for which the self-cleavage came out at 0.

Regarding G53U G76A, the self-cleavage is 1.09.

For G17C U47G, the self-cleavage is 0.217.

U46C C85A: the self-cleavage is 0.617.

In the case of G35U G40U, the self-cleavage is 0.12.

With A8U G39U, the self-cleavage turned out to be 0.571.

On to A71C A87U, for which the self-cleavage was 0.844.

Consider C57G A71C, for which the self-cleavage amounted to 0.852.

With C21A A83U, the self-cleavage is 0.0739.

Take U20C C58A: the self-cleavage came to 0.0875.

As for G55A G74U, the self-cleavage was 0.541.

On to C41U A83G, for which the self-cleavage is 0.712.

U37G G76U: the self-cleavage is 0.104.

Regarding U20C C57G, the self-cleavage was 0.0723.

Regarding U72A U79A, the self-cleavage came to 0.536.

Turning to C18G C84G, the self-cleavage was 0.237.

Consider G54C C57U, for which the self-cleavage is 0.997.

As to U23C C66A, the self-cleavage came to 0.982.

In the case of C3A C41U, the self-cleavage is 0.321.

Take C30A G59U: the self-cleavage came out at 0.637.

On to C14A U60G, for which the self-cleavage was determined as 0.684.

Take U12A C15G: the self-cleavage came out at 0.

Take G59A C84G: the self-cleavage turned out to be 0.597.

C7G G17C: the self-cleavage came out at 0.

Regarding G2A G39A, the self-cleavage is 0.0171.

Take G17C C61A: the self-cleavage came out at 0.185.

Take A43U C66A: the self-cleavage was determined as 0.415.

For the variant G31C C44A, the self-cleavage was 0.

Regarding C58A A70G, the self-cleavage was found to be 0.807.

As for G10A U72G, the self-cleavage was found to be 0.378.

Regarding C61G C84U, the self-cleavage amounted to 0.544.

Consider U12A C33G, for which the self-cleavage came out at 0.

Turning to C4A G82U, the self-cleavage was determined as 0.089.

Take G10U G34U: the self-cleavage turned out to be 0.323.

Regarding A8U G50A, the self-cleavage turned out to be 0.739.

As for U65C G68U, the self-cleavage came to 0.831.

Take U37G A51G: the self-cleavage amounted to 0.0639.

Take U9A A56C: the self-cleavage was found to be 1.16.

For the variant C15G C24U, the self-cleavage was 0.196.

Regarding C41A A77C, the self-cleavage came to 0.172.

For the variant C7A G52A, the self-cleavage was determined as 0.629.

In the case of C44G C58G, the self-cleavage was 0.665.

On to G28C G54U, for which the self-cleavage was found to be 0.0248.

Regarding A43C U69A, the self-cleavage amounted to 0.532.

Turning to G28U A51U, the self-cleavage worked out at 0.166.

Turning to C49A C63G, the self-cleavage amounted to 0.256.

As for G59C C75A, the self-cleavage was 0.219.

For A16U U69C, the self-cleavage was found to be 0.643.

Turning to G10C C75A, the self-cleavage was 0.415.

Take G10C G31C: the self-cleavage stood at 0.237.

In the case of U23G U72C, the self-cleavage was 0.391.

As for C33G A51C, the self-cleavage turned out to be 0.246.

Regarding G31U G52C, the self-cleavage turned out to be 0.35.

Regarding U23A U37C, the self-cleavage was found to be 1.08.

For the variant A83C C84U, the self-cleavage amounted to 0.582.

Turning to C14U U69C, the self-cleavage was 1.4.

Consider U47C C64A, for which the self-cleavage was 0.567.

For the variant G40U G50U, the self-cleavage came out at 1.01.

Regarding C22G U79A, the self-cleavage was 0.0615.

On to C44U U60C, for which the self-cleavage stood at 0.872.

As to C44A C86U, the self-cleavage worked out at 1.01.

Turning to A43U C85U, the self-cleavage was 0.658.

For the variant C33U U79A, the self-cleavage is 0.684.

In the case of U27A G39U, the self-cleavage was determined as 0.213.

Regarding G35C A42C, the self-cleavage worked out at 0.107.

As to C15G, the self-cleavage amounted to 0.663.

In the case of U20C G39A, the self-cleavage came to 0.

G35A A45C: the self-cleavage came out at 0.0378.

As for G2A A16U, the self-cleavage is 0.0665.

On to C19U U79A, for which the self-cleavage was 0.0396.

As for U9C U72C, the self-cleavage came out at 0.485.

Consider C21A G59U, for which the self-cleavage was determined as 0.0545.

For the variant G25C G50A, the self-cleavage is 0.0354.

G6C A8C: the self-cleavage was 0.

Take C33A A83U: the self-cleavage was determined as 0.217.

With C24U G67C, the self-cleavage amounted to 0.78.

As for G2A G59A, the self-cleavage worked out at 0.208.

With G38U C85U, the self-cleavage is 0.269.

Regarding G2C G40U, the self-cleavage turned out to be 0.0409.

Take G28U G59C: the self-cleavage turned out to be 0.136.

For the variant C57U U65A, the self-cleavage turned out to be 0.917.

For G81C A83U, the self-cleavage is 0.237.

With G25U G68A, the self-cleavage came to 0.0923.

Take A51C G55A: the self-cleavage was 0.873.

Consider C41A C63G, for which the self-cleavage is 0.623.

Regarding G6U A83G, the self-cleavage turned out to be 0.17.

As for U46A A71C, the self-cleavage was determined as 1.11.

As to C33U C48A, the self-cleavage was determined as 0.631.

Turning to G2C G73U, the self-cleavage turned out to be 0.0683.

In the case of C15U C22G, the self-cleavage came to 0.147.

In the case of G11C C18G, the self-cleavage came out at 0.

For C21G C62G, the self-cleavage came out at 0.0755.

As for C7A G76U, the self-cleavage is 0.849.

Turning to G6U A16G, the self-cleavage was found to be 0.388.

For U47A G82U, the self-cleavage was found to be 0.142.

With C84A C86U, the self-cleavage turned out to be 0.719.

Consider G53A A56U, for which the self-cleavage is 0.873.

On to A8U G28A, for which the self-cleavage came to 0.0369.

With C30A C75G, the self-cleavage was found to be 0.

For the variant C24U G50A, the self-cleavage is 0.726.

Consider C18G G59U, for which the self-cleavage is 0.312.

Turning to C33A U47C, the self-cleavage is 0.0692.

Regarding G10C U37C, the self-cleavage came out at 1.05.

C30G G53U: the self-cleavage came out at 0.103.

For the variant C30G G53C, the self-cleavage turned out to be 0.237.

Regarding G5C G74A, the self-cleavage stood at 0.0898.

For the variant C24U A42U, the self-cleavage was determined as 0.17.

G29C G50C: the self-cleavage is 0.

With G10U A45C, the self-cleavage is 0.175.

Turning to C24G C61A, the self-cleavage was determined as 0.112.

Turning to C14U C30A, the self-cleavage stood at 0.675.

Regarding U72A C86U, the self-cleavage was determined as 0.957.

Turning to G55C C58A, the self-cleavage amounted to 1.15.

Consider C24A C62A, for which the self-cleavage came to 0.946.

Turning to G1A G6A, the self-cleavage is 0.437.

For U47C U79A, the self-cleavage was 0.65.

With C62A G82C, the self-cleavage amounted to 0.271.

Consider G2C U60A, for which the self-cleavage turned out to be 0.0779.

Turning to C62G U65A, the self-cleavage was determined as 0.166.

For G29U C33U, the self-cleavage amounted to 0.0563.

A56G A83U: the self-cleavage is 0.684.

Regarding C15A A45G, the self-cleavage was determined as 0.8.

Turning to C13G G59C, the self-cleavage is 0.104.

As for U12C G38U, the self-cleavage was determined as 0.0739.

U23C G39A: the self-cleavage amounted to 0.519.

Consider A56U G76C, for which the self-cleavage is 1.14.

For the variant G35U G55A, the self-cleavage was found to be 0.477.

C3A C24G: the self-cleavage stood at 0.089.

With G25C G74U, the self-cleavage was found to be 0.108.

Take G82A C84U: the self-cleavage came to 0.215.

With G5U G35C, the self-cleavage is 0.

Turning to A43C C49G, the self-cleavage worked out at 0.287.

G5C A51G: the self-cleavage is 0.262.

Take A45C C58A: the self-cleavage was 0.519.

Consider A56U A70G, for which the self-cleavage stood at 1.07.

Regarding C3A G25U, the self-cleavage was found to be 0.0631.

Take C33A C86U: the self-cleavage stood at 0.244.

On to A42U U72C, for which the self-cleavage turned out to be 0.508.

Consider G17U U20A, for which the self-cleavage is 0.0378.
